Test results as given in PMC4072508, “Genome-Wide Prediction and Validation of Peptides That Bind Human Prosurvival Bcl-2 Proteins” (PLoS Computational Biology, 2014).

B1: DNAH3 (peptide)
chain: TEEMKHNVEKLNELSKNLNRAFAEFE
B2: ANGPTL3 (peptide)
chain: LDDVKILANGLLQLGHGLKDFVHKTK
B3: FOLH1B (peptide)
chain: PFDCRDYAVVDRKYADKIYNISMKHP
B4: RIOK2 (peptide)
chain: NEEGQQFALKLHRLGRTSFRNLKNKR
B5: TCP11L2 (peptide)
chain: TGGLPELASRLTRISAVLLEGMNKET
B6: CCNH (peptide)
chain: RYPILENPEILRKTLDDFLNRIALTD
B7: DBC1 (peptide)
chain: RQKIQRTARKLFGLSVRCRHNPNHQL
B8: NBEAL2 (peptide)
chain: EVRSSQFARKLWRSSRRISQVSSGET
B9: GH2 (peptide)
chain: FDNAMLRARRLYQLAYDTYQEFEEAY
B10: DPF3 (peptide)
chain: SCMATVIHNPLKALLDQFYKEAIEHC
B11: MAGEB2 (peptide)
chain: IKKSVTKGEMLKIVLKRFREHFPEIL
B12: TAF1 (peptide)
chain: EGTKIVLGKQDIESADEVRRKSLVLK
B13: BRPF3 (peptide)
chain: DTIFHRAAVRLRDLLGAILRHARRQA
B14: LYZ (peptide)
chain: VFERCELARTLKRLLMDGYRGISLAN
B15: BLOC1S2 (peptide)
chain: VAALEQAAYKLDAYSKKLEAKYKKLE
B16: EVI5 (peptide)
chain: PHQFDGVPDKLIQAAYQVKYNSKKMK
B17: C3orf15 (peptide)
chain: RAEIEKMAEKINDIAYEMESRRTYLQ
B18: ABCD4 (peptide)
chain: SQDVERFCRQLSSMASKLIISPFTLV
B19: MYH6 (peptide)
chain: SRELEEISERLEEAGGATSVQIEMNK
B20: APOA4 (peptide)
chain: VPFATELHERLAKDSEKLKEEIGKEL
B21: WDR24 (peptide)
chain: QGDVQMAVSVLIVLGERVRKDIDEQT
B22: CASKIN2 (peptide)
chain: KNGHREVIRQLLRAGIEINRQTKTGT

These binders were tested against Bcl-xL, Q07817 (assay: peptide SPOT array, c-Myc-tagged receptor at 1 uM or 100 nM, anti-c-Myc-Cy3).
Sequence of Bcl-xL, Q07817 (Q07817 1-209): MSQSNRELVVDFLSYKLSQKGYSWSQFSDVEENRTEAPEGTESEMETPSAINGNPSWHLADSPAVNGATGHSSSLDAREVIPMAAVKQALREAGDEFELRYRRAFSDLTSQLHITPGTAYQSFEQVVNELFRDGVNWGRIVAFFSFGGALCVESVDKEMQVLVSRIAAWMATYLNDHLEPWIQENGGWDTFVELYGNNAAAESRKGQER

Point of comparison: B2, SPOT signal as a fraction of Bim BH3's signal on the same receptor and array 0.04. Against it:
- B1 — lower, 0.02
- B3 — higher, 0.36
- B4 — higher, 0.95
- B5 — lower, 0.03
- B6 — lower, 0.02
- B7 — higher, 0.69
- B8 — higher, 0.86
- B9 — the same, 0.04
- B10 — lower, 0.03
- B11 — higher, 0.2
- B12 — higher, 0.05
- B13 — higher, 0.55
- B14 — higher, 0.42
- B15 — higher, 0.25
- B16 — higher, 0.69
- B17 — lower, 0.03
- B18 — higher, 0.05
- B19 — lower, 0.02
- B20 — lower, 0.02
- B21 — lower, 0.02
- B22 — higher, 0.23
